The target of one data set is T1, human BVR (Homo sapiens, UniProt P53004).
T1 construct: made in house; host or cells: E. coli (pGEX 4T-2/hBVR)
T1 sequence (P53004 1-296 A154S/G155D/E160D): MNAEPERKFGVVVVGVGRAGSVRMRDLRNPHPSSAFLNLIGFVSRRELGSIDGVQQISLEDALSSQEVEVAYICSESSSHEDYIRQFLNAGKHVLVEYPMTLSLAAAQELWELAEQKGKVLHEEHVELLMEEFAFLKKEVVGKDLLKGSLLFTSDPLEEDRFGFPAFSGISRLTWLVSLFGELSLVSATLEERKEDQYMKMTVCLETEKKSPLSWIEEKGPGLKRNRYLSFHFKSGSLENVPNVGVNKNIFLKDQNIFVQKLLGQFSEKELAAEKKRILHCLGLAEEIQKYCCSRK
In words: BVR autophosphorylation. The data set is classed as biochemical. The conditions noted are these: 20 mM Zn acetate, pH 8.4; also with Mn^+2. Here is the method:
In FIG. 9A, effect of tyrosine mutations of BVR on its autophosphorylation is shown. Human wtBVR and BVR with mutations in tyrosine were used in the experiment to determine autophosphorylation of BVR. The reactions were performed as described in the Examples. FIG. 9B is a graph showing that BVR tyrosine kinase activity was checked by incubating 5 μg purified BVR with 5 μg Raytide in 50 μl kinase buffer containing 10 μM labeled ATP for 2 h at 30° C. The aliquots of the reaction were transferred onto P81 Whatman filters and radioactivity due to phosphorylation was measured using a scintillation counter.
FIGS. 10A-B illustrate that autophosphorylation of BVR is an Mn^+2 dependant kinase reaction. […] The effects of different metal ions (30 mM MnCl2, 20 mM MgCl2, 20 mM CaCl2, 20 mM Zn acetate) and their combinations were analyzed as indicated in the text. […] Phosphorylation of wtBVR by IRK in the presence of tyrosine kinase inhibitor genestein (200 μM); DMSO was used as the vehicle for genestein and was included in the control reaction mixture. The reactions were carried out in HEPES buffer (pH 8.0) in the presence of 20 mM MgCl2 as described in the Examples.
(§1) To detect autophosphorylation of BVR, GST-hBVR of wild type (wt) and mutant variants were incubated in 50 mM HEPES buffer (pH 8.4) in the presence of 30 mM MnCl2 and 1 mM DTT for 2 h at 30° C. The reaction was started with the addition of 10 μM ATP labeled with 10 μCi [γ-^32P]-ATP and was stopped with the addition of Laemmli sample buffer. Samples were boiled for 3 min and applied to a 8% SDS-PAGE gels, transferred to a PVDF membrane, and then visualized by autoradiography. […] The reaction was started with the addition of ATP and terminated by adding 120 μl 10% H3PO4. 100 μl aliquots were directly transferred to P81 Whatman filters which were subsequently washed extensively in 0.75% phosphoric acid at room temperature. Finally, the filters were submerged in acetone for 5 min, dried, and retained counts were measured using a Beckman LS 6500 liquid scintillation counter (Beckman Coulter, Fullerton, Calif.).

For data set [1], the system named is BVR. Put plainly: BVR tyrosine phosphorylation in insulin-treated 293A cells (immunoprecipitation/immunoblot). It is filed as cell-based, human. The conditions noted are these: within 8 min after insulin treatment. On the procedure: FIG. 12A-D illustrates that “knock-down” BVR and Y^198 detection increased glucose uptake into 293A cells upon insulin induction. As shown in the graph of FIG. 12A, insulin treatment increases BVR activity. 293A cells were treated with insulin (50 nM) and subsequently used at indicated time points for BVR activity measurement. […] Purified BVR was phosphorylated by IRK for the indicated periods. Reactions were terminated by diluting with PBS and freezing at −20° C. BVR activity was determined as in FIG. 12A, and normalized to that of the control (43.8 μmol per min per mg). […] 293A cells were incubated with insulin and after 8 min or 30 min, subjected to immunoprecipitation using anti-human BVR antibodies. The phosphorylated BVR was visualized by immunoblotting using anti-tyrosine antibodies. ECL system was used for visualization of phosphorylated BVR. In FIG. 12D, the effect of insulin treatment on glucose uptake cells infected with siBVR or Y^198 mutant BVR were treated with insulin for 15 min and subsequently incubated in 1 ml PBS containing 5 mM glucose and 1 μCi/ml-2-deoxy-1 [^3H] glucose (2DG) for 15 min. Cells were washed with cold PBS and lysed by addition of 1% (w/v) SDS to each well. […]
293A Cells were plated in 10 cm plates and transfected with appropriate plasmids. […] Protein concentration was determined by Bradford assay (Bio-Rad, Hercules, Calif.). […]
In general terms: Immunoblotting shows a protein as a band on a membrane.

For data set [2], the system named is BVR. In words: BVR reductase activity in insulin-treated 293A cells. The conditions noted are these: insulin 50 nM, measured 1 h after treatment. The data set is classed as cell-based, human. Here is the method: FIG. 12A-D illustrates that “knock-down” BVR and Y^198 detection increased glucose uptake into 293A cells upon insulin induction. As shown in the graph of FIG. 12A, insulin treatment increases BVR activity. 293A cells were treated with insulin (50 nM) and subsequently used at indicated time points for BVR activity measurement. […] Purified BVR was phosphorylated by IRK for the indicated periods. Reactions were terminated by diluting with PBS and freezing at −20° C. BVR activity was determined as in FIG. 12A, and normalized to that of the control (43.8 μmol per min per mg). […] 293A cells were incubated with insulin and after 8 min or 30 min, subjected to immunoprecipitation using anti-human BVR antibodies. The phosphorylated BVR was visualized by immunoblotting using anti-tyrosine antibodies. ECL system was used for visualization of phosphorylated BVR. […]
293A cells treated with insulin were lysed in buffer containing a protease inhibitor cocktail and phosphatase inhibitors (10 mM NaF, 1 mM NaVO4). BVR activity was measured at pH 6.7 using NADH as the cofactor as described previously (Huang et al., J. Biol. Chem. 264:7844-9 (1989), which is hereby incorporated by reference in its entirety). The rate of conversion of biliverdin to bilirubin was determined as the increase in absorbance at 450 nm at 25° C. Specific activity is expressed as μmol of bilirubin/min/mg of protein.

The target of data set [3] is T2, Peptide 2, IRS-1 peptide (Arg-Thr-Glu-Ser307-Ile-Thr-Ala-Thr-Ser312-Pro-Ala-Ser315-Met-Val-Gly-Gly-Lys-Pro).
T2 chain: RTESITATSPASMVGGKP

Data set [4] concerns the target T3, Peptide 1, mutant IRS-1 peptide (Lys-Lys-His-Ala-Asp-Asp-Gly-Ala-Met-Pro-Met-Ser-Pro-Gly-Val-Ala).
T3 chain: KKHADDGAMPMSPGVA

Data set [5] has as its target insulin receptor substrate-1 (IRS-1) peptide Y^608.
The subject of another data set is IRS-1. Put plainly: BVR kinase activity with IRS-1 as substrate (wt vs G17 mutant). It is filed as biochemical. The settings on record: mutation in ATP binding domain compared with wtBVR. Here is the method: BVR containing mutations on threonine 202 and serine residues, as indicated in the figure, were subjected to autophosphorylation analysis as described in the text. […] 5 μg purified BVR was incubated with 5 μg IRS-1 or HO-1 or HO-2, used as a control for kinase activity, and MBP which was used as the substrate control in 50 μl kinase buffer as described in the Examples. […] Mutant G^17 was compared with wtBVR as a kinase for IRS.
as §1

For the molecule `CC(=O)[O-].CC(=O)[O-].[Zn+2]` [Zn^+2, Zn acetate, reference compound], the “BVR autophosphorylation in presence of metal ion” value at human BVR is listed as “inhibitory to BVR autophosphorylation”.

As to “insulin: Human insulin purchased from Sigma-Aldrich”, the BVR tyrosine phosphorylation entry with BVR [1] is “dramatic increase in phosphorylation”. In addition, the “increase in BVR reductase activity” value in the data set with BVR [2] is on record as 2 fold.

B1: GST-hBVR fusion protein, wild type (human biliverdin reductase fused to glutathione-S-transferase) (protein)
chain: T1 sequence (P53004 1-296 A154S/G155D/E160D)
As for B1, the “phosphorylation of IRS-1 peptide by BVR (32P, cpm)” value in data set [3] was “this peptide is also a suitable substrate for BVR (1198±230 cpm)”; in data set [4], “both the mutated and unmutated peptides were phosphorylated to about the same extent (1049±78 cpm and 1081±183 cpm respectively)”; in data set [5], “both the mutated and unmutated peptides were phosphorylated to about the same extent (1049±78 cpm and 1081±183 cpm respectively)”. For the same molecule, in data set [5], the “phosphorylation of BVR by IRK in the presence of increasing molar ratio of IRS/BVR” value was “in the presence of increasing amounts of IRS, there was an increase in phosphorylation of BVR by IR up to equimolar ratio of IRS/BVR”.

B2: G^17: human BVR point mutant GVGRA to GVARA in ATP binding domain (protein, UniProt P53004 3-296, looked up, variant G17A)
Biliverdin reductase A: AEPERKFGVVVVGVARAGSVRMRDLRNPHPSSAFLNLIGFVSRRELGSIDGVQQISLEDALSSQEVEVAYICSESSSHEDYIRQFLNAGKHVLVEYPMTLSLAAAQELWELAEQKGKVLHEEHVELLMEEFAFLKKEVVGKDLLKGSLLFTAGPLEEERFGFPAFSGISRLTWLVSLFGELSLVSATLEERKEDQYMKMTVCLETEKKSPLSWIEEKGPGLKRNRYLSFHFKSGSLENVPNVGVNKNIFLKDQNIFVQKLLGQFSEKELAAEKKRILHCLGLAEEIQKYCCSRK
As for B2, the “IRS phosphorylation by BVR” value in the data set with IRS-1 is given as “for the most part, prevented IRS phosphorylation by BVR”.

The values above are taken from US20130344053A1, “Methods of Modifying Insulin Signaling Using Biliverdin Reductase (BVR) and BVR Derived Peptides” (University of Rochester, priority 2010, published 2013).
